# Experimental data published in US20250154283A1 (published 2025).
# T1: biotinylated cynomolgus monkey VWF cysteine knot (CK) domain construct (cynomolgus monkey, biotinylated in vitro (BirA) on the biotinylation tag; one N-glycan)
# T1 construct: Expressed in HEK293 EBNA cells; disulfide-linked homodimer; also called cyno VWF CK; cyno VWF CK domain; not shown: in vitro biotinylation tag, HRV-3C site and 3 VWF residues before the CK domain
# T1 chain: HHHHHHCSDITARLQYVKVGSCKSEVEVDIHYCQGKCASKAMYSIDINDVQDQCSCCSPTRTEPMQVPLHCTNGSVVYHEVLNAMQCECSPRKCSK
# Experiments:
# [1] = target: T2, biotinylated human VWF cysteine knot (CK) domain construct (human, UniProt P04275 2724-2813, biotinylated in vitro (BirA) on the biotinylation tag; one N-glycan); assay: SPR, scFv captured via anti-SV5, CK domain injected, pH 5.5, apparent Kd;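 note: scFvs from crude yeast supernatants captured on chip-bound anti-SV5 antibody, Kd computed as koff divided by kon, dimeric CK construct likely makes affinity appear higher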
# T2 construct: Expressed in HEK293 EBNA cells; disulfide-linked homodimer; also called human VWF CK; human VWF CK domain; not shown: in vitro biotinylation tag, HRV-3C site and 3 VWF residues before the CK domain
# [2] = target: T1, biotinylated cynomolgus monkey VWF …; assay: SPR, scFv captured via anti-SV5, CK domain injected, pH 7.4, apparent Kd;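 note: scFvs from crude yeast supernatants printed on an amine-coupled anti-SV5 lawn, Kd computed as koff over kon, likely overestimating affinity because the CK construct is dimeric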
# Excerpt: (§1) Briefly, a sensor chip was activated and coupled with an anti-SV5 mouse monoclonal antibody using amine coupling. The soluble scFvs in crude yeast supernatants were printed on the anti-SV5 lawn. […] From the measured association (kₒₙ) and dissociation (koff) rate constants, an apparent equilibrium dissociation constant (Kd=koff/kₒₙ) was estimated. Due to the dimeric state of the CK construct and consequent possibility for simultaneous binding of captured scFv to both monomers in the CK dimer, the SPR setup was expected to overestimate the binding affinity.
# [3] = target: T2, biotinylated human VWF cysteine knot …; assay: as above
# Excerpt: as §1
Kd [1] [pM],Kd [2] [pM],Kd [3] [pM],Binder
1090,16,101,"5802_Lib4_scFv (scFv, VH-linker-VL; not shown: C-terminal 3xFLAG and SV5 tags) scFv: QVQLQESGPGLVKPSQTLSLTCTVSGYSISSGDYHWSWIRQPPGKGLEWIGYINPSGSADYNPSLKSRVTMSVDTSKNQFSLKVNSVTAADTAVYYCARDGVAATYYYYYGMDVWGQGTTVTVSSSGGSTITSYNVYYTKLSSSGTEIVMTQSPATLSLSPGERATLSCRASHSIGSNLAWYQQKPGQAPRLLIYDATTRATGIPARFSGSGSGTDFTLTISSLEPEDFAVYYCQQAYSFPLTFGGGTKVEIK"
43,61,116,"1374_Lib8_scFv (scFv, VH-linker-VL; not shown: C-terminal 3xFLAG and SV5 tags) scFv: EVQLVESGGGLVQPGRSLRLSCAASGVDFSTYAMHWVRQAPGKGLEWVSAISSSGAYTDYADSVEGRFTISRDNAKNSLYLQMNSLRAEDTAVYYCATDRGPFSGYGTQGWFDPWGQGTLVTVSSSGGSTITSYNVYYTKLSSSGTDIQMTQSPSSLSASVGDRVTITCRASQTIRSYLAWYQQKPGKAPKLLIYGASDLQSGVPSRFSGSGSGTDFTLTISSLQPEDVATYYCQQYANFPITFGGGTKVEIK"
389,39,305,"1405_Lib8_scFv (scFv, VH-linker-VL; not shown: C-terminal 3xFLAG and SV5 tags) scFv: EVQLVESGGGLVQPGRSLRLSCAASGVDFSTYAMHWVRQAPGKGLEWVSAISSSGAYTDYADSVEGRFTISRDNAKNSLYLQMNSLRAEDTAVYYCATDRGPFSGYGTQGWFDPWGQGTLVTVSSSGGSTITSYNVYYTKLSSSGTDIQMTQSPSSLSASVGDRVTITCRASRDITSYLAWYQQKPGKAPKLLIYHASTLEAGVPSRFSGSGSGTDFTLTISSLQPEDVATYYCQQYGDFPPTFGGGTKVEIK"
75,134,307,"Lib4_P2_H3_scFv (scFv, VH-linker-VL; not shown: C-terminal 3xFLAG and SV5 tags) scFv: QVQLQESGPGLVKPSQTLSLTCTVSGSTFGDYAWSWIRQPPGKGLEWIGYINHIGNADYNPSLKSRVTMSVDTSKNQFSLKVNSVTAADTAVYYCARDGVESPEVPNYYYYGMDVWGQGTTVTVSSSGGSTITSYNVYYTKLSSSGTEIVMTQSPATLSLSPGERATLSCRASHSIGSNLAWYQQKPGQAPRLLIYDATNRAPGIPARFSGSGSGTDFTLTISSLEPEDFAVYYCQQSYTNPTFGGGTKVEIK"
76,,1780,"Lib1_P1_A2_scFv (scFv, VH-linker-VL; not shown: C-terminal 3xFLAG and SV5 tags) scFv: QVQLVQSGAEVKKPGASVKVSCKVSEGTLSRHYINWVRQAPGKGLEWMGGINAKSGATIYAQKFQGRVTMTEDTSTDTAYMELSSLKSEDTAVYYCAKDTGDDILTDYSDAFDIWGQGTMVTVSSSGGSTITSYNVYYTKLSSSGTDIQMTQSPSSVSASVGDRVTITCRASQNIGTSLAWYQQKPGKAPKLLIYGASNLESGVPSRFSGSGSGTDFTLTISSLQPEDFANYYCLQYNDWPPLYSFGGGTKVEIK"
39,684,167,"9301_Lib8_scFv (scFv, VH-linker-VL; not shown: C-terminal 3xFLAG and SV5 tags) scFv: EVQLVESGGGLVQPGRSLRLSCAASGFNFHNYDMHWVRQAPGKGLEWVSAISGSGYTADYADSVEGRFTISRDNAKNSLYLQMNSLRAEDTAVYYCAKSHSSGWSSAFDIWGQGTMVTVSSSGGSTITSYNVYYTKLSSSGTDIQMTQSPSSLSASVGDRVTITCRASQTIGYWLAWYQQKPGKAPKLLIYDASVPESGVPSRFSGSGSGTDFTLTISSLQPEDVATYYCQQTLSSPWTFGGGTKVEIK"
1160,2,88,"7046_Lib8_scFv (scFv, VH-linker-VL; not shown: C-terminal 3xFLAG and SV5 tags) scFv: EVQLVESGGGLVQPGRSLRLSCAASGFNFHNYDMHWVRQAPGKGLEWVSAISGSGYTADYADSVEGRFTISRDNAKNSLYLQMNSLRAEDTAVYYCAKSHSSGWSSAFDIWGQGTMVTVSSSGGSTITSYNVYYTKLSSSGTDIQMTQSPSSLSASVGDRVTITCRASQTIGYWLAWYQQKPGKAPKLLIYDATNLATGVPSRFSGSGSGTDFTLTISSLQPEDVATYYCQHYNPYSQVTFGGGTKVEIK"
1380,550,3170,"8226_Lib8_scFv (scFv, VH-linker-VL; not shown: C-terminal 3xFLAG and SV5 tags) scFv: EVQLVESGGGLVQPGRSLRLSCAASGFNFHNYDMHWVRQAPGKGLEWVSAISGGAVSTDYADSVEGRFTISRDNAKNSLYLQMNSLRAEDTAVYYCARSSWYGGQIDFWGQGTLVTVSSSGGSTITSYNVYYTKLSSSGTDIQMTQSPSSLSASVGDRVTITCRASQDISGWLAWYQQKPGKAPKLLIYAASSLQDGVPSRFSGSGSGTDFTLTISSLQPEDVATYYCQQSYRIPSTFGGGTKVEIK"
274,167,391,"1081_Lib8_scFv (scFv, VH-linker-VL; not shown: C-terminal 3xFLAG and SV5 tags) scFv: EVQLVESGGGLVQPGRSLRLSCAASGFNFHNYDMHWVRQAPGKGLEWVSAISGGAVSTDYADSVEGRFTISRDNAKNSLYLQMNSLRAEDTAVYYCARSSWYGGQIDFWGQGTLVTVSSSGGSTITSYNVYYTKLSSSGTDIQMTQSPSSLSASVGDRVTITCRASESVSSWLAWYQQKPGKAPKLLIYGASTLEGGVPSRFSGSGSGTDFTLTISSLQPEDVATYYCQQAYRTPVTFGGGTKVEIK"
2280,137,217,"9621_Lib8_scFv (scFv, VH-linker-VL; not shown: C-terminal 3xFLAG and SV5 tags) scFv: EVQLVESGGGLVQPGRSLRLSCAASGFSFSMYAMHWVRQAPGKGLEWVSAISPSGDATDYADSVEGRFTISRDNAKNSLYLQMNSLRAEDTAVYYCARGMQDYGHYYYYYMDVWGKGTTVTVSSSGGSTITSYNVYYTKLSSSGTDIQMTQSPSSLSASVGDRVTITCRASQDISTSLAWYQQKPGKAPKLLIYGASSLETGVPSRFSGSGSGTDFTLTISSLQPEDVATYYCQQGYIAPRTFGGGTKVEIK"
33,,3110,"Lib4_P2_A11_scFv (scFv, VH-linker-VL; also called Lib4_P2_All; not shown: C-terminal 3xFLAG and SV5 tags) scFv: QVQLQESGPGLVKPSQTLSLTCTVSGVTFSSYGWSWIRQPPGKGLEWIGYVDTSGSTDYNPSLKSRVTMSVDTSKNQFSLKVNSVTAADTAVYYCARTTYYYDSSGFARGWFDPWGQGTLVTVSSSGGSTITSYNVYYTKLSSSGTEIVMTQSPATLSLSPGERATLSCRASRSISTNLAWYQRKPGQAPRLLIYDTSNRAPGIPARFSGSGSGTDFTLTISSLEPEDFAVYYCLQYDVSPYTFGGGTKVEIK"
45,59,92,"Lib1_P1_A6_scFv (scFv, VH-linker-VL; not shown: C-terminal 3xFLAG and SV5 tags) scFv: QVQLVQSGAEVKKPGASVKVSCKVSGSTFSNYAIHWVRQAPGKGLEWMGGIVPLSGTAIYAQKFQGRVTMTEDTSTDTAYMELSSLKSEDTAVYYCARDQGESSGWYAIYYGMDVWGQGTTVTVSSSGGSTITSYNVYYTKLSSSGTDIQMTQSPSSVSASVGDRVTITCRASQGIGTWLAWYQQKPGKAPKLLIYGSSSRASGVPSRFSGSGSGTDFTLTISSLQPEDFANYYCQQSYGKPTFGGGTKVEIK"
1050,,2110,"16_Lib8_scFv (scFv, VH-linker-VL; not shown: C-terminal 3xFLAG and SV5 tags) scFv: EVQLVESGGGLVQPGRSLRLSCAASGFRFDEYDMHWVRQAPGKGLEWVSAISSESASIDYADSVEGRFTISRDNAKNSLYLQMNSLRAEDTAVYYCARDGAYGDYFDYWGQGTMVTVSSSGGSTITSYNVYYTKLSSSGTDIQMTQSPSSLSASVGDRVTITCRASQDIKSWLAWYQQKPGKAPKLLIYGASTLQSGVPSRFSGSGSGTDFTLTISSLQPEDVATYYCQQSYSAPYTFGGGTKVEIK"
